Common to all, as to experiment: fluorescence polarisation; fluorescein-labelled histone peptide 3 nM, KDM4 DTD titrated 0.1-100 μM; 30 mM HEPES, 150 mM NaCl pH 7.4, 0.01% Triton X-100
The target in experiment [1] is H3 (17-32) K23me3 peptide, fluorescein-labelled (UniProt P68431).
The target in experiment [2] is H3K23me2 peptide (dimethylated H3K23), fluorescein-labelled.
Experiment [3] has as its target H3K23me1 peptide (monomethylated H3K23), fluorescein-labelled.
The target of experiment [4] is H3T22phK23me3 peptide, fluorescein-labelled.
Experiment [5] concerns the target H3K23me3R26me2a peptide, fluorescein-labelled.
The target of experiment [6] is H3K23me3R26A peptide, fluorescein-labelled.

In the case of “KDM4B double tudor domain (KDM4B-DTD), HaloTag-tagged, wild type (from UniProt O94953 917-1031) (domain or fragment)”, the Kd (commonly the concentration at which binding is half-saturated) in experiment [1] is 10.3 µM.

On to “KDM4A double tudor domain (KDM4A-DTD), HaloTag-tagged, wild type (from UniProt O75164 895-1011) (domain or fragment)”, for which the Kd in experiment [2] was 9.06 µM; in experiment [3], 98.5 µM; in experiment [4], 83.7 µM; in experiment [5], 8.7 µM; in experiment [1] it was 2.2 µM; in experiment [6], 32.3 µM.

The values are drawn from paper PMC5114558, “Reader domain specificity and lysine demethylase-4 family function” (Nature Communications, 2016).
